± gives the half width of the 95% confidence interval.
Experiment: folding stability dG unfold (combined trypsin and chymotrypsin); higher = more stable
Procedure, shortened: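 Mini-proteins designed to be under 80 residues and free of cysteine were carried in a PA-tagged cDNA display construct and digested with trypsin and with chymotrypsin. Each protease was applied at 11 threefold-diluted concentrations, alongside a no-protease condition, before sequencing. K50 came from Bayesian fitting of the sequencing counts, and unfolding free energy was obtained by comparing it with a sequence-predicted unfolded-state K50 and a shared folded-state K50, for each protease separately or for both together. Designs were retained only if their AlphaFold2 dimer inter-PAE exceeded 15.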

Sequence | folding stability dG unfold
SAGGSAGGSASEEEKPPKIKRVTINIPEEELRERFPGNPEWAENIAREAAKEGFDEVEIDINSAGGSAGGSA [r18_441_TrROS] | 0.521 ± 0.17 kcal/mol
SAVTFPVPVTVTVPDADGGPPAVTVPVAVPVDPDAVRDAAIERLRRELAEAGRPDVTEEDLARPEFLAARSA [r9_263_TrMRF] | -0.335 ± 0.23 kcal/mol
SMEPPVPKIKARLVEVREEGERPRALFEIEEIEDAPPEIEELFKRGAKIEVEIPPDYPLKEDEEIEVDPLSA [r9_557_TrMRF] | 0.0252 ± 0.28 kcal/mol
SAGGMTVTVPFTSEEELEAAIEAAPSSLTTVTTTDPARGLRRTLNVDPATRAVVETEEEAVDPEDPALSAGG [r13_945_JUSTAS] | < -1 kcal/mol
SAGGSAGGSAGNADQIKEIARKYAPKNGMKPKDVDIEVEERENPNGKKELHIDVEGEYKNSAGGSAGGSAGG [r11_414_TrROS] | < -1 kcal/mol
SAGKSKTITLEIYNKETNIIIKIEIEINGDEVTIKVYAFNKDGKLIAKAEIKFNKKTKKLEIKIEIKKLSAG [r5_747_TrROS_Hall] | > 6 kcal/mol
SAGGSAGGGGGFRVKAEVKHGGKEYPMEILIDPSEGNINIQMPNGKSITLPLNDVKIDEVEPVNSAGGSAGG [r6_185_TrROS] | 0.101 ± 0.34 kcal/mol
SAGGSAGGSANQVKVEIEIPRMKMERDPDGGYQMEMRPVKIEIEAPMPEEQADDIAKDLIKSAGGSAGGSAG [r3_487_TrROS] | 0.0639 ± 0.16 kcal/mol
SAGGSPWIEVEIPFPPGMPADELADFIAEELDENGHDVKVDDVEQDPEEGYMKFRVRDGKSVEIPWSAGGSA [r2_242_TrROS] | -0.521 ± 0.23 kcal/mol
SAGEVETRTLPDGSVEIRRVERDPNSDQEVETRERVTFDPATGTARVPREVYRGDRWETEERVIALPASAGG [r19_289_JUSTAS] | -0.38 ± 0.27 kcal/mol
SAGGATTERTFTFPSSVSPEEAAAAVAAEAPPGLRVDVAPVATRADPSGVTTTTLRARFTDPAAPAAASAGG [r13_12_JUSTAS] | < -1 kcal/mol
SAGGPEKKILVARDSSDPNLPLEKIKEELEKKGFPPAEVTSAATEPLEKAREKAEKEGNPLIVLPVESAGGS [r16_94_JUSTAS] | < -1 kcal/mol
SAGGSAGGSAMPIPKVLVLKDEGTLEEAREAALKYVKEDEKVIVKIGDKEIVIPAEELKKKSAGGSAGGSAG [r3_50_TrMRF] | < -1 kcal/mol
SAGMTFEEEFVEEVDGGEMVKTKTLYEYDPSTNSITVLEEEVEKIPLPEVAPAPAPPEAMEERGAPGALSAG [r5_393_JUSTAS] | -0.115 ± 0.09 kcal/mol
SAGGSAGGSAGMEVIINDPEKAKNIPVNSKVKLPNGKEYKVKKVEYNPEIGYVKFIVSPESAGGSAGGSAGG [r11_316_TrMRF] | -0.588 ± 0.34 kcal/mol
SAGGSAGGWIKLDGKEVYIVIPDGNPEQIAKELKEQFPNGNIKPHPGQNAEEAAKKNKRVIWIPSAGGSAGG [r6_680_TrROS] | 0.284 ± 0.37 kcal/mol
SAGGSAGGSAGGGMKTKTTISTHPGPGGKTRVLVEVDPKKGLLTWRDPSDPSATTVVPLGSAGGSAGGSAGG [r7_992_JUSTAS] | -0.446 ± 0.41 kcal/mol
SAGGSAGGSAGEAAIEAAIAANSPDKDATVALPGGETVRLKFTRDPKVPTLLSLDVEREPPRSAGGSAGGSA [r18_202_JUSTAS] | < -1 kcal/mol
SATKTINFDEFNDMMNQGDPPMLRHIIKEAREKDPDKEITIRMPKNPMFRDYIKEAFKEEGYPVKITPHSAG [r14_236_TrROS] | < -1 kcal/mol
SAGGSAEEEEITIKLRITVYNEETGKPVKEIEIEIKVKKGQTLEQILEEAKKLLEEKGYKIVEIEISAGGSA [r15_195_TrROS_Hall] | 4.52 ± 0.46 kcal/mol
SAGGSAGGSAGGEVPADAVIEERLEVTDVSTGEKRRFRRTVTVEVDPDGSLRVRTEVEEESAGGSAGGSAGG [r7_19_JUSTAS] | -0.215 ± 0.3 kcal/mol
SAGGSAGGLLPDQRVRLRLTRTSPDGEPEEATVELTNIPSSITPSSTLTFPGEGDTWEVEEITTSAGGSAGG [r6_560_TrMRF] | < -1 kcal/mol
SAMIEVYRPPDRALVKLPSGKVEILDDPEAFEARVRAESDLPIRVTPLSPESPEFKALLEEIEKKLKGKSAG [r14_235_JUSTAS] | 0.0988 ± 0.31 kcal/mol
SAGGMKKITIPMKVLEEKFGIPKNTSPEELAKKLNPKEKVEVLSVTSEKSENGEENPTVTVLVIPPKESAGG [r13_723_TrMRF] | -0.22 ± 0.15 kcal/mol
SAGGSAGGSAGPMWRIEVENPNGRTPEIWIPPNMDTPEELVDELKKHFPGLKKVKIEPYPSAGGSAGGSAGG [r11_311_TrROS] | -0.391 ± 0.27 kcal/mol

Sequence | folding stability dG unfold
SAGGSAGPMPSTVTTLATAPLPDGTLVVTTLERTPDSVTRTTTTYKPADGSPLGTASTTYPAPAALSAGGSA [r15_716_JUSTAS] | -0.0279 ± 0.14 kcal/mol
SAGGSAGGSAGGSSMKYFTRSASPDTTFTVKTPNGGVVNVTPTAAPGTYKYTFTLPGNSSAGGSAGGSAGGS [r4_360_JUSTAS] | < -1 kcal/mol
SAGGSAGGSGEYVVVLLREELPDEERYLRRPVPLDAALEALKEGKLVRSSEGREWRFAEYRPESAGGSAGGS [r12_432_TrMRF] | -0.218 ± 0.28 kcal/mol
SAGAAAIAEKLGFSPELVEILSVEDVEYTIVVRRTGEPVKMKRPTVKVLVTDPSVPKETTAEVPVAELASAG [r5_517_JUSTAS] | -0.714 ± 0.35 kcal/mol
SAGGSAGGSAREELVRRAAEEGLPGVRVLAIPPGNREVPAIVEGDKVYSYDLPDDAEVVVASAGGSAGGSAG [r3_244_TrMRF] | -0.0679 ± 0.086 kcal/mol
SAGGSETLELTIEIPGLGQPVSARSTSFDPEKGLWTAEMKSPVPGLRRTLTYDPVTGTVSSTTTLLSAGGSA [r2_147_JUSTAS] | 0.108 ± 0.13 kcal/mol
SAGGSAMKTAEVVLDVPEEELEAARAAGEGLSAEVRARMEALAAEVRAAGYDEVVLRLRPSSVPLPSAGGSA [r15_304_JUSTAS] | < -1 kcal/mol
KKRTIEIPFPANGYKVKIEVPEDQGKPIDEEEIQKLLREWHPDMPADDMPAKEIAKYLADEPGIKEVEIERS [r1_463_TrROS] | 0.132 ± 0.28 kcal/mol
SAGKLVVPILLEFPPGATLEEAKEAVEEAVEKLKESFPNAPDIEIKLVDVKVFKTEDDRYLVLALIEVGSAG [r5_985_TrMRF] | 4.55 ± 0.43 kcal/mol
SAGMEVVEKIAKELGYENVKVESITPQVSPSGTTTLTITVKISKPGSTKTFTITASPEEIEEEIKKALSSAG [r5_549_JUSTAS] | 4.77 ± 0.23 kcal/mol
SAGGSAGGSAGGSSARVPFPATGAVLEVRVTPDGRPRVRVFNPATGEVVEFPPGAEVGVSAGGSAGGSAGGS [r4_158_TrMRF] | 0.0259 ± 0.13 kcal/mol
SAGGSAGGTREIELPGMKISVQKDPNQGKKKIEVEFPNGEEFTMDPGKPPDDLPPPFRRALKEISAGGSAGG [r6_749_TrROS] | < -1 kcal/mol
SAGGSMTVVTVEARPPDSSETTVTPLTETAPDGRPRAISLEEARARLAAEPDRPVTRVTVRPEAAASAGGSA [r2_192_JUSTAS] | 0.0975 ± 0.15 kcal/mol
SAGGSAGGSAGMKLIEFPPGEEFEEFIKNLPGPIKSVERTKIEPEKVLAKIVLELPPSNLSAGGSAGGSAGG [r11_143_JUSTAS] | < -1 kcal/mol
SAGGSAGGSAGGSMLTVRSSSTTPLPDGSTVTTYEVNDKPYLVRVDPNGPVVTVKPLSLLSAGGSAGGSAGG [r7_772_JUSTAS] | -0.473 ± 0.29 kcal/mol
SAGGSAGGSAGGDPIRVDDIEPNPDRLEIDIRNFGNGNQKKHTIPPGSPPKIKPGDYIRSAGGSAGGSAGGS [r10_834_TrROS] | 0.229 ± 0.26 kcal/mol
SAGGPDPYNLKVEEETYPNPDGGEMKIPKIEIPDGRLKIDMEMRNPGNGKEHEHEITIPVKPGQEIFISAGG [r13_190_TrROS] | 0.0459 ± 0.21 kcal/mol
SAGGSAGGSAGGSWRVRIDLPNGKSRTIPIKPGEEVDLNEIADELSDKYNIKSISIEEPSAGGSAGGSAGGS [r4_116_TrROS] | -0.158 ± 0.29 kcal/mol
SAGGSAGGSAKAKVLEVEEKPVGGVNRFKIEVPLENGEPQKFYVLVEVPEDGDEKFAVKPGSAGGSAGGSAG [r3_94_TrMRF] | -0.319 ± 0.18 kcal/mol
SAGGSAGGSAGGKKININVPAEEMTEEEIKKLIKNLPPDMPIEIEIQPVPPPPPPPPGDKSAGGSAGGSAGG [r7_979_TrROS] | < -1 kcal/mol
SAGGMIRRITIYITDPGPSAPATTTTITVDVPPDRPDVPDEEVAQRVAESIAPKTGATATVEKIEEVSAGGS [r8_101_JUSTAS] | -0.159 ± 0.15 kcal/mol
SAGGSAKLRVAEADFVPGALLEAIEELEKAPAGAEVEVRPGDPLEPKERPVRFVVNEKGELLEVVGSAGGSA [r15_228_TrMRF] | < -1 kcal/mol
SAGGSAGGSAGGSVTIPVPENVKVRIYPPNGGRREVTAAAGATITVPAPGGEEVRIEVETSAGGSAGGSAGG [r7_357_TrMRF] | 0.193 ± 0.1 kcal/mol
SAGGSAGGSAGAPVEVVITFESPTSRTTRTFPADLPEAEVERLAAALRAAHPEPVRVEPRSAGGSAGGSAGG [r11_515_JUSTAS] | < -1 kcal/mol
